Common to all, as to experiment: cell-based or functional assay
In test [1] the target is integrin αvβ3 on cells (T24, MDA-MB-435, β3-transfected 293 cells) (human) (UniProt P06756).
The target of test [2] is integrin αvβ5 on cells (T24, T24-β3 neg., OVCAR-5) (human) (UniProt P06756).
Test [3] concerns the target integrin receptors on the surface of MDA-MB-435 cells.

integrin αvβ5 on cells (T24, T24-β3 neg., OVCAR-5) (human), sequence (P06756 31-1048, chain 1 of 2): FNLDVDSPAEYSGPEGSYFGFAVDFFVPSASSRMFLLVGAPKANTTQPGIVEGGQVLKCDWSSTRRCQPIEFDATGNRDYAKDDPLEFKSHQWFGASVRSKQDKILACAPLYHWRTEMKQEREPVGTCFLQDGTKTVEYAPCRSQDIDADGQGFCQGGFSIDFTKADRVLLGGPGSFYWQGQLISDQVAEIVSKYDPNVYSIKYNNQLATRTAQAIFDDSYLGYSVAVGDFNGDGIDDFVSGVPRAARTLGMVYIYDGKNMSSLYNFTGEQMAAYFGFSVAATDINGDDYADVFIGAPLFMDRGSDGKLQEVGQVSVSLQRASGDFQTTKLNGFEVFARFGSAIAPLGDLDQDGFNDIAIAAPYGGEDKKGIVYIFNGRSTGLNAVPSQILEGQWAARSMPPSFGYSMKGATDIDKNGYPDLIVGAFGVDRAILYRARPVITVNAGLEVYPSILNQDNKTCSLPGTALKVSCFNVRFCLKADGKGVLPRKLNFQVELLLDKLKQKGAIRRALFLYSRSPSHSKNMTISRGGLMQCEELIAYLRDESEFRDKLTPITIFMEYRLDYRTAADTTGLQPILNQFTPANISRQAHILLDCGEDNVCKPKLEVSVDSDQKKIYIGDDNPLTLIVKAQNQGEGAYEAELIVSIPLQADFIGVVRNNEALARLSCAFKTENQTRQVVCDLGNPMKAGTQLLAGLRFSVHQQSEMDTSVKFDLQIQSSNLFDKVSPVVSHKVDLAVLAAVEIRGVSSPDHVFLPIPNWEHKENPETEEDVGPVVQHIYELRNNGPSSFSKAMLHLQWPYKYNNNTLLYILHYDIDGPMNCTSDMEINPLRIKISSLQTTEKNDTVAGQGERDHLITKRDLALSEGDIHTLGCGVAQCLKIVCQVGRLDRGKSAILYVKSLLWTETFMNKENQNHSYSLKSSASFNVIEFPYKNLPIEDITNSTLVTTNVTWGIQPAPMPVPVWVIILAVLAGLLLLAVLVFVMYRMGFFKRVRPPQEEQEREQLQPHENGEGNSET
integrin αvβ5 on cells (T24, T24-β3 neg., OVCAR-5) (human), sequence (P18084 24-799, chain 2 of 2, further chain): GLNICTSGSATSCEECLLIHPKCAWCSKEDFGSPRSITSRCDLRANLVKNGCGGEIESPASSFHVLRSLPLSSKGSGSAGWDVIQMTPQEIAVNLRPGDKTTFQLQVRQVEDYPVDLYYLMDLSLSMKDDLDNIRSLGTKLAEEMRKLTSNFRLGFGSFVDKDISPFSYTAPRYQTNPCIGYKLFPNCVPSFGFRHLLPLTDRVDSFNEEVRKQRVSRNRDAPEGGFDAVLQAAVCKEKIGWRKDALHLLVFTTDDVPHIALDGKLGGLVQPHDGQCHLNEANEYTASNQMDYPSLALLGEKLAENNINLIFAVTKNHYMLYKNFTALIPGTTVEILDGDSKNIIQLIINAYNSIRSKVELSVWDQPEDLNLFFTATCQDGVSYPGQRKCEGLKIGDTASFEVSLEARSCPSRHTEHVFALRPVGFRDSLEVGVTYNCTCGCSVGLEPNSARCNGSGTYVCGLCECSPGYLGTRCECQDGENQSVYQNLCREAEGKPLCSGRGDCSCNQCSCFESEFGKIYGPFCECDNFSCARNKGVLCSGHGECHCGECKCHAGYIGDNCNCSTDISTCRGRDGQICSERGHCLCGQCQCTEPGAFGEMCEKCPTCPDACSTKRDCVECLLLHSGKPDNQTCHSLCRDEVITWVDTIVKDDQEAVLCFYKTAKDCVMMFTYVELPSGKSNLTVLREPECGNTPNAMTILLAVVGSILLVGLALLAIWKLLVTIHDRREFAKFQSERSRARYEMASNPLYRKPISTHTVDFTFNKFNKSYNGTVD
integrin αvβ3 on cells (T24, MDA-MB-435, β3-transfected 293 cells) (human), sequence (P06756 31-1048, chain 1 of 2): as the sequence (P06756 31-1048, chain 1 of 2) above
integrin αvβ3 on cells (T24, MDA-MB-435, β3-transfected 293 cells) (human), sequence (P05106 27-788, chain 2 of 2, further chain): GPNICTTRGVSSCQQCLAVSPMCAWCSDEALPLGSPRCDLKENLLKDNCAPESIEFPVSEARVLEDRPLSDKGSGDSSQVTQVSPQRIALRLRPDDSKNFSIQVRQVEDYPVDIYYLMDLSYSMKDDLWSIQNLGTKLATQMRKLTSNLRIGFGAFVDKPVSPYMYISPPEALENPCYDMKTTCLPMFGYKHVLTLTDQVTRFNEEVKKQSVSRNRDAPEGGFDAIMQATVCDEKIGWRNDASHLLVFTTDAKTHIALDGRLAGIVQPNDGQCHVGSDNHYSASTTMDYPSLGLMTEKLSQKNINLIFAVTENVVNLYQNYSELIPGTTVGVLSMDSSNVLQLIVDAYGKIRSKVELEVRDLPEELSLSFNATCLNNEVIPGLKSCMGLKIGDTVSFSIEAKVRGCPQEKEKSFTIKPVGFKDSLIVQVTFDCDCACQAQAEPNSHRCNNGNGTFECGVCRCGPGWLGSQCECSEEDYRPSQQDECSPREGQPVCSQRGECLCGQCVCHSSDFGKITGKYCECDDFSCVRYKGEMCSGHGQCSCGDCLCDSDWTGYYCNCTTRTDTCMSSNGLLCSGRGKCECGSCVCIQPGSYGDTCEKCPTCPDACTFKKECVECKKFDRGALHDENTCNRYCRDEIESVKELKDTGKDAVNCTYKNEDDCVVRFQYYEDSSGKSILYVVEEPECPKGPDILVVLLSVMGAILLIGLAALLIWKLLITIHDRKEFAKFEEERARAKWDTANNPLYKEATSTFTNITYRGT

Take “7E3, murine monoclonal antibody against (GP)IIb/IIIa that also binds αvβ3”: in test [1], the inhibition of adhesion of T24 cells to immobilized vitronectin is < 40%. Consider P1F6, anti-αvβ5 monoclonal antibody, for which, in test [2], the inhibition of adhesion of T24-β3 neg. cells to immobilized vitronectin worked out at 80% and the inhibition of adhesion of T24 cells to immobilized vitronectin was < 40%.

Consider RGD peptide GRGDSP, for which, in test [3], the inhibition of binding of MDA-MB-435 cells to immobilized CN (IC50) turned out to be 0.4 mM.

These data come from patent US6710030.
